Measurements taken from patent US20160326240A1.

T1: Rat RGMa-His (rat) (UniProt D4A188)
T1 sequence: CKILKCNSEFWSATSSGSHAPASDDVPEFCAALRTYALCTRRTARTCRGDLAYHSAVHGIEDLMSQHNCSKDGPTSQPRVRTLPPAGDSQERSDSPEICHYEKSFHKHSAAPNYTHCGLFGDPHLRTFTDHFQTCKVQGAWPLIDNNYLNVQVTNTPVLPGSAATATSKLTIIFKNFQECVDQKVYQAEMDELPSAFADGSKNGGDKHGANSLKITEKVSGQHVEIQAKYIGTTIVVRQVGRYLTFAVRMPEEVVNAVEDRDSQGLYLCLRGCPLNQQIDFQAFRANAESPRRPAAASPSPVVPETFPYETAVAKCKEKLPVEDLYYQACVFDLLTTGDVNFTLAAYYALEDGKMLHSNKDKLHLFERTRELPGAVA


Biological target: T1, Rat RGMa-His (rat)
Assay: BIAcore

| Kd [nM] | koff [s⁻¹] | kon [M⁻¹ s⁻¹] | Binder |
| --- | --- | --- | --- |
| 19 | 0.00048 | 26000 | AE12-1 (antibody, V domains shown) VH: EVQLVQSGAEVKKPGASVKVSCKASGYTFTSHGISWVRQAPGQGLDWMGWISPYSGNTNYAQKLQGRVTMTTDTSTSTAYMELSSLRSEDTAVYYCARVGSGPYYYMDVWGQGTLVTVSS VL: QSALTQPRSVSGSPGQSVTISCTGTSSSVGDSIYVSWYQQHPGKAPKLMLYDVTKRPSGVPDRFSGSKSGNTASLTISGLQAEDEADYYCCSYAGTDTLFGGGTKVTVL |
| 5 | 6.9e-05 | 14000 | AE12-1-Y (antibody, V domains shown) VH: EVQLVQSGAEVKKPGASVKVSCKASGYTFTSHGISWVRQAPGQGLDWMGWISPYSGNTNYAQKLQGRVTMTTDTSTSTAYMELSSLRSEDTAVYYCARVGSGPYYYMDVWGQGTLVTVSS VL: QSALTQPRSVSGSPGQSVTISCTGTSSSVGDSIYVSWYQQHPGKAPKLMLYDVTKRPSGVPDRFSGSKSGNTASLTISGLQAEDEADYYCYSYAGTDTLFGGGTKVTVL |
| 12 | 0.00032 | 28000 | AE12-1-I (antibody, V domains shown) VH: EVQLVQSGAEVKKPGASVKVSCKASGYTFTSHGISWVRQAPGQGLDWMGWISPYSGNTNYAQKLQGRVTMTTDTSTSTAYMELSSLRSEDTAVYYCARVGSGPYYYMDVWGQGTLVTVSS VL: QSALTQPRSVSGSPGQSVTISCTGTSSSVGDSIYVSWYQQHPGKAPKLMLYDVTKRPSGVPDRFSGSKSGNTASLTISGLQAEDEADYYCISYAGTDTLFGGGTKVTVL |
| 17 | 0.00028 | 16000 | AE12-1-K (antibody, V domains shown) VH: EVQLVQSGAEVKKPGASVKVSCKASGYTFTSHGISWVRQAPGQGLDWMGWISPYSGNTNYAQKLQGRVTMTTDTSTSTAYMELSSLRSEDTAVYYCARVGSGPYYYMDVWGQGTLVTVSS VL: QSALTQPRSVSGSPGQSVTISCTGTSSSVGDSIYVSWYQQHPGKAPKLMLYDVTKRPSGVPDRFSGSKSGNTASLTISGLQAEDEADYYCKSYAGTDTLFGGGTKVTVL |
| 5.2 | 0.00014 | 26000 | AE12-1-F (antibody, V domains shown) VH: EVQLVQSGAEVKKPGASVKVSCKASGYTFTSHGISWVRQAPGQGLDWMGWISPYSGNTNYAQKLQGRVTMTTDTSTSTAYMELSSLRSEDTAVYYCARVGSGPYYYMDVWGQGTLVTVSS VL: QSALTQPRSVSGSPGQSVTISCTGTSSSVGDSIYVSWYQQHPGKAPKLMLYDVTKRPSGVPDRFSGSKSGNTASLTISGLQAEDEADYYCFSYAGTDTLFGGGTKVTVL |
| 8.6 | 0.00025 | 29000 | AE12-1-H (antibody, V domains shown) VH: EVQLVQSGAEVKKPGASVKVSCKASGYTFTSHGISWVRQAPGQGLDWMGWISPYSGNTNYAQKLQGRVTMTTDTSTSTAYMELSSLRSEDTAVYYCARVGSGPYYYMDVWGQGTLVTVSS VL: QSALTQPRSVSGSPGQSVTISCTGTSSSVGDSIYVSWYQQHPGKAPKLMLYDVTKRPSGVPDRFSGSKSGNTASLTISGLQAEDEADYYCHSYAGTDTLFGGGTKVTVL |
| 15 | 0.00032 | 220000 | AE12-1-V (antibody, V domains shown) VH: EVQLVQSGAEVKKPGASVKVSCKASGYTFTSHGISWVRQAPGQGLDWMGWISPYSGNTNYAQKLQGRVTMTTDTSTSTAYMELSSLRSEDTAVYYCARVGSGPYYYMDVWGQGTLVTVSS VL: QSALTQPRSVSGSPGQSVTISCTGTSSSVGDSIYVSWYQQHPGKAPKLMLYDVTKRPSGVPDRFSGSKSGNTASLTISGLQAEDEADYYCVSYAGTDTLFGGGTKVTVL |
| 12 | 0.00039 | 32000 | AE12-1-L (antibody, V domains shown) VH: EVQLVQSGAEVKKPGASVKVSCKASGYTFTSHGISWVRQAPGQGLDWMGWISPYSGNTNYAQKLQGRVTMTTDTSTSTAYMELSSLRSEDTAVYYCARVGSGPYYYMDVWGQGTLVTVSS VL: QSALTQPRSVSGSPGQSVTISCTGTSSSVGDSIYVSWYQQHPGKAPKLMLYDVTKRPSGVPDRFSGSKSGNTASLTISGLQAEDEADYYCLSYAGTDTLFGGGTKVTVL |
